From patent US20210155689A1 (SHANGHAI PHARMAEXPLORER, published 2021)

T1: monkey LAG-3 on cells (HEK293-cLAG-3 stable cell line) (monkey, UniProt P18627 24-525 (human entry))
T1 construct: Full-length monkey (Chinese monkey) LAG-3 gene expressed on HEK293 cells
T1 chain: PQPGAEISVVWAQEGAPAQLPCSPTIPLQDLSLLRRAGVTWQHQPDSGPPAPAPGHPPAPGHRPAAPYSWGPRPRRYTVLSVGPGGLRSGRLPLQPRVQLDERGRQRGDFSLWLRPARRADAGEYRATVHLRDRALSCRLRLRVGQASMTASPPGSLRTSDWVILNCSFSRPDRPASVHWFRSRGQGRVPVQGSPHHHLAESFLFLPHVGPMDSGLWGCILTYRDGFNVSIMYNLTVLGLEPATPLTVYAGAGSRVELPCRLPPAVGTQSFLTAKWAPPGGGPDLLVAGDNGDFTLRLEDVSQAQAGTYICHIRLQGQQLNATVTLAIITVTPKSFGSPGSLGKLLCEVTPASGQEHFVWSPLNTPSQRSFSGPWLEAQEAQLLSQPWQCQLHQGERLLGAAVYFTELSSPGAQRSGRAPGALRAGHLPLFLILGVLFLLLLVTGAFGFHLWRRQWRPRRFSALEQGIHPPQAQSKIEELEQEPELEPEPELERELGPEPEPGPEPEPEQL

T2: human LAG-3 on cells (HEK293-hLAG-3 stable cell line) (human, UniProt P18627 23-525)
T2 sequence: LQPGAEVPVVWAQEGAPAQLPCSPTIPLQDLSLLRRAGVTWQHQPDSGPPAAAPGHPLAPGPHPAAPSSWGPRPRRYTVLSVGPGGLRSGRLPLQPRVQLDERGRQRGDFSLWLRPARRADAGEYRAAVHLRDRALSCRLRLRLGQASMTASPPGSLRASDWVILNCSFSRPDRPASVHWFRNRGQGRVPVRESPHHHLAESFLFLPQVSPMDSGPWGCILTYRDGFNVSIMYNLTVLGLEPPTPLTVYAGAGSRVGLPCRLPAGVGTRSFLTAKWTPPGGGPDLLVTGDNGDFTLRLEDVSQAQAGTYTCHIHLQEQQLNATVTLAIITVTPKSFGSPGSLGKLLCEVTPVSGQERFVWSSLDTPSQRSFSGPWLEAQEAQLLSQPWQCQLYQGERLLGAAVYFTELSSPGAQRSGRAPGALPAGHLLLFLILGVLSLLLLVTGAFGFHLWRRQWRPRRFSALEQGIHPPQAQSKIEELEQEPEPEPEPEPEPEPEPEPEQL

T3: LAG-3-hFc protein (human LAG-3 extracellular region with hFc tag) (human, UniProt P18627 23-450)
T3 construct: also called hLAG-3-hFc; LAG-3 protein; not shown: human IgG Fc fragment (hFc) of the pCpC vector
T3 sequence: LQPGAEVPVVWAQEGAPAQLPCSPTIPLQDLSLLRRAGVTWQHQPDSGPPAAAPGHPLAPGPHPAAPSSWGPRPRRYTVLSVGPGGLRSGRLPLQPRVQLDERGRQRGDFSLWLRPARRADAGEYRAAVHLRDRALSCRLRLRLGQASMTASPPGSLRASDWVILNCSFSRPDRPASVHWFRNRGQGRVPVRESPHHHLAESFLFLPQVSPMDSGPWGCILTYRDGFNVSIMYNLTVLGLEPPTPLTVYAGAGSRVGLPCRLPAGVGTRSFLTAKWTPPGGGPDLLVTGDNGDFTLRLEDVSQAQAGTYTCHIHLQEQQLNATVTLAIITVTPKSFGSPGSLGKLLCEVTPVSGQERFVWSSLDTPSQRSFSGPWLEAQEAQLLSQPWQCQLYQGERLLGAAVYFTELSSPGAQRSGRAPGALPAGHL

T4: human LAG-3 (full length, on the cell surface) (human, UniProt P18627 23-525)
T4 sequence: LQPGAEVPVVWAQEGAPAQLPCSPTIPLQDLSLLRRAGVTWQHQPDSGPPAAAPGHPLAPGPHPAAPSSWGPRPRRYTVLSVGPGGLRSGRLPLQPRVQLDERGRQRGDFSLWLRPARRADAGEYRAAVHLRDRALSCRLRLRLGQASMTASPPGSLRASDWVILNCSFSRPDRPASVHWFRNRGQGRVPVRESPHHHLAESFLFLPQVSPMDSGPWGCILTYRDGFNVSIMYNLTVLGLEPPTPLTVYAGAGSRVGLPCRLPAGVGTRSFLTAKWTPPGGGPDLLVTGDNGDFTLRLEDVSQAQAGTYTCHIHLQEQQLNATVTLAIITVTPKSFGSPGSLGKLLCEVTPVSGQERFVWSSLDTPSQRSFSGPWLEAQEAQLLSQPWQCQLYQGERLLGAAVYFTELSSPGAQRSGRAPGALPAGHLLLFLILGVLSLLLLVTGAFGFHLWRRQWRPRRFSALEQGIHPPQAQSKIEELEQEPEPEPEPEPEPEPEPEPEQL

T5: monkey LAG-3 (full length, on the cell surface) (monkey, UniProt P18627 24-525 (human entry))
T5 construct: also called HEK293-cLAG-3; monkey LAG-3 protein on the cell surface
T5 chain: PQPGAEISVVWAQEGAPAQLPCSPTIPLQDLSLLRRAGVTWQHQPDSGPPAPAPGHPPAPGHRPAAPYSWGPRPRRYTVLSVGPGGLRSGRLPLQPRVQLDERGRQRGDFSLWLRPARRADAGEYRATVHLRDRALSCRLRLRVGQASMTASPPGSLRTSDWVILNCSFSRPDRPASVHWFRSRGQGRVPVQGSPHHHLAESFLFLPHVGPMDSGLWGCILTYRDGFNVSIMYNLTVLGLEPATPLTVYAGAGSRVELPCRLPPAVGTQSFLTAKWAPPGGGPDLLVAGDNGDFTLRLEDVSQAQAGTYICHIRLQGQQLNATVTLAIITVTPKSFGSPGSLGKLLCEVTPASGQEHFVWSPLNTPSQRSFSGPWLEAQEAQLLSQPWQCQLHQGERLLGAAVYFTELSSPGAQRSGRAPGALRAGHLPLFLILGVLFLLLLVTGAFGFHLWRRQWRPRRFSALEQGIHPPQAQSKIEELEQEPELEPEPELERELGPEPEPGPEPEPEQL


Experiments:
[1] = molecular target: T1, monkey LAG-3 on cells (HEK293-cLAG-3 …); assay: FACS, HEK293-cLAG-3, antibody 0.064 nM
Text: (§1) The pIRES plasmid with the monkey-derived full-length gene was transfected into the HEK293 cell line to construct a HEK293 stable cell line containing monkey LAG-3 (herein referred to as HEK293-cLAG-3 stable cell line). The HEK293-hLAG-3 stable cell line and HEK293-cLAG-3 stable cell line were expanded in a T-75 cell culture flask to a 90% confluence. The medium was aspirated, and the cells were washed with HBSS (Hanks' Balanced Salt Solution) 1-2 times, then treated with a enzyme-free cell dissociation fluid (Versene solution: Life technology) and the cells were collected. The cells were washed with HBSS buffer for 1-2 times. After counted, the cells were diluted with HBSS to 1-2×10⁶ cells per ml, added with 1% goat serum blocking solution, incubated on ice for 20-30 minutes, and then washed with HBSS for 2 times by centrifugation. The collected cells were suspended in the FACS buffer (HBSS+1% BSA) to 2×10⁶ cells/ml, added as 100 microliters per well to a 96-well FACS reaction plate, added with 100 microliters per well of the antibody sample to be tested, incubated on ice for 1-2 hours. The plate was washed twice with the FACS buffer by centrifugation, added with 100 microliters of fluorescent (Alexa 488)-labeled secondary antibodies per well, and incubated on ice for 0.5-1.0 hours. The plate was washed 2-3 times with FACS buffer by centrifugation, added with 100 μl fixative solution (4% Paraformaldehyde) per well to suspend the cells. 5-10 minutes later, it was washed 1-2 times with FACS buffer by centrifugation. The cells were suspended with 100 microliters of FACS buffer, FACS (FACSCalibur, BD) was used for detection and the results were analyzed.

[2] = molecular target: T2, human LAG-3 on cells (HEK293-hLAG-3 …); assay: FACS, HEK293-hLAG-3, antibody 200.000 nM
Text: as §1

[3] = molecular target: T3, LAG-3-hFc protein (human LAG-3 …); assay: FACS, inhibition of LAG-3-hFc binding to MHC II on Raji cells, antibody 66.667 nM
Method: The FACS reaction plate incubating the Raji cells was centrifuged to discard the supernatant. The above mixture was added as 100 μl per well to Raji cells and incubated on ice for 1-2 hours. The plate was washed twice with blocking solution (PBS, 2% fetal bovine serum) by centrifugation, added with 100 microliters of fluorescent (Alexa 488)-labeled secondary antibodies per well, and incubated on ice for 1.0 hours. The plate was washed 2-3 times by centrifugation with blocking solution (PBS, 2% fetal bovine serum), added with 100 microliters of PBS per well to suspend cells, and detected using FACS (FACS Calibur, BD) and the results were analyzed. Wherein, the IgG control was murine IgG, and the data in the table is the inhibition rate (%).

[4] = molecular target: T4, human LAG-3 (full length, on the cell …); assay: cell-based or functional assay
[5] = molecular target: T5, monkey LAG-3 (full length, on the cell …); assay: FACS, HEK293-cLAG-3; 0.320 nM
Text: as §1

Row | Binder | Mean fluorescence intensity [1] | Mean fluorescence intensity [2] | Inhibition rate (%) [3] | mIL-2 (pg/mL), antigen-specific T lymphocyte stimulation test; antibody 0.016 ug/mL [4] | mIL-2 (pg/mL), antigen-specific T lymphocyte stimulation test; antibody 0.08 ug/mL [4] | mIL-2 (pg/mL), antigen-specific T lymphocyte stimulation test; antibody 2 ug/mL [4] | mIL-2 (pg/mL), antigen-specific T lymphocyte stimulation test; antibody 4 ug/mL (so in the source) [4] | mIL-2 (pg/mL), antigen-specific T lymphocyte stimulation test; antibody 10 ug/mL [4] | Mean fluorescence intensity [5]
1 | 556F6B8 mouse-human chimeric antibody (antibody, V domains shown, also called mAb123-556F6B8; 556F8B8) VH: RVQLKQSGPGLVQPSQSLSITCTVSGFSLIKYGVHWVRQSPGEGLEWLGVIWRGGITDYNAAFMSRLSITKDNSKSQVFFKMNSLQADDTAIYYCAKWDGPLAMDYWGQGTSVTVSS VL: DIVMTQSHKFLSTSVGDRVSITCKASQDVGTTVAWYQQKPGQSPKLLIYWASTRHTGVPDRFTGSGSGTDFTLTISNVQSEDLADYFCQQYSSYPYTFGGGTKLEIK | 4.45 | 125 | 96% |  |  |  |  |  | 
2 | 556F6B8 (mouse antibody purified from hybridoma) (antibody, V domains shown, also called mAb123-556F6B8) VH: RVQLKQSGPGLVQPSQSLSITCTVSGFSLIKYGVHWVRQSPGEGLEWLGVIWRGGITDYNAAFMSRLSITKDNSKSQVFFKMNSLQADDTAIYYCAKWDGPLAMDYWGQGTSVTVSS VL: DIVMTQSHKFLSTSVGDRVSITCKASQDVGTTVAWYQQKPGQSPKLLIYWASTRHTGVPDRFTGSGSGTDFTLTISNVQSEDLADYFCQQYSSYPYTFGGGTKLEIK |  |  |  | 88.3 pg/mL | 141 pg/mL | 270 pg/mL | 214 pg/mL | 255 pg/mL | 9.8 MFI
3 | 405B8H3 (mouse antibody purified from hybridoma) (antibody, V domains shown, also called mAb103-405B8H3; 405B81-13) VH: QVQLQQSGAELVRPGASVTLSCKASGYTFTDYEMHWVKQTPVHGLEWIGATDPETGNSAYNQKFKGKAIMTADKSSSTAYMELRSLTSEDSAVYYCISTGWNDWGQGTSLTVSS VL: DIKMTQSPSSMYASLGERVTITCKASQDINSYLSWFQQKPGKSPKTLIYRADRLLDGVPSRFSGSGSGQDYSLTISSLEYGDMGIYYCLQYDEFPYTFGGGTKLEIK |  |  |  | 205 pg/mL | 204 pg/mL | 435 pg/mL | 392 pg/mL | 441 pg/mL | 8 MFI
4 | 105F1E10 (mouse antibody purified from hybridoma) (antibody, V domains shown, also called mAb009-105F1E10) VH: EVQLQQSGPELVKPGASVKMSCRASGYTFTDFKMHWMKQSHGKSLEWIGYIAPNNGGTAYNQKFRGKATLTVNESSNTAYMELRSLTSEDSAVYYCVDWDDVDYWGQGTTLTVSS VL: DIKMTQSPSSMYASLGERVTITCKASQDINSYLSWFQQKSGKSPKTLIYRANRLVDGVPSRFSGSGSGQDYSLTISSLEYEDMGIYYCLQYVEFPLTFGAGTKLELK |  |  |  |  |  |  |  |  | 6.6 MFI
5 | 105F1E10 mouse-human chimeric antibody (antibody, V domains shown, also called mAb009-105F1E10) VH: EVQLQQSGPELVKPGASVKMSCRASGYTFTDFKMHWMKQSHGKSLEWIGYIAPNNGGTAYNQKFRGKATLTVNESSNTAYMELRSLTSEDSAVYYCVDWDDVDYWGQGTTLTVSS VL: DIKMTQSPSSMYASLGERVTITCKASQDINSYLSWFQQKSGKSPKTLIYRANRLVDGVPSRFSGSGSGQDYSLTISSLEYEDMGIYYCLQYVEFPLTFGAGTKLELK | 3.54 | 175 | 96% |  |  |  |  |  | 
6 | 405B8H3 mouse-human chimeric antibody (antibody, V domains shown, also called mAb103-405B8H3) VH: QVQLQQSGAELVRPGASVTLSCKASGYTFTDYEMHWVKQTPVHGLEWIGATDPETGNSAYNQKFKGKAIMTADKSSSTAYMELRSLTSEDSAVYYCISTGWNDWGQGTSLTVSS VL: DIKMTQSPSSMYASLGERVTITCKASQDINSYLSWFQQKPGKSPKTLIYRADRLLDGVPSRFSGSGSGQDYSLTISSLEYGDMGIYYCLQYDEFPYTFGGGTKLEIK | 4.8 | 169 | 95.8% |  |  |  |  |  | 
7 | 409D4E10 (mouse antibody purified from hybridoma) (antibody, V domains shown, also called mAb112-409D4E10) VH: QVQLQQSGAELVRPGASVTLSCKASGNTFTDYEMHWVKQTPVHGLEWIGATDPETDNTAYNQKFKGKAILTTDKSSSTAYMELRSLTSEDSAVYYCITSGWNDWGQGTSLTVSS VL: DIKMTQSPSSMYASLGERVTITCKASQDINSYLSWFQQKPGKSPKTLIYRANRLLDGVPSRFSGSGSGQDYSLTISSLEYEDMGIYYCLQYNEFPYTFGGGTKLEIK |  |  |  | 172 pg/mL | 175 pg/mL | 346 pg/mL | 261 pg/mL | 335 pg/mL | 11.5 MFI
8 | 409B11E12 (mouse antibody purified from hybridoma) (antibody, V domains shown, also called mAb104-409B11E12) VH: QVQLQQSGAELVRPGASVTLSCKASGYTFTDYEMHWVKQTTVHGLEWIGATDPETSYSAYNQKFKGKAILTADKSSSTAYMELRSLTSEDSAVYYCIATGWNDWGQGTSLTVSS VL: DLKMTQSPSSMYASLGERVTITCKASQDINSYLSWFQQKPGKSPKTLIYRANRLLDGVPSRFSGSGSGQDYSLTISSLEYEDMGIYYCLQYDEFPYTFGGGTKLEIK |  |  |  | 187 pg/mL | 183 pg/mL | 376 pg/mL | 374 pg/mL | 364 pg/mL | 8 MFI
